Experiment: label from the status in PepcDB records

| Sequence | protein production |
| --- | --- |
| MSKDVKPTRKNLMAIEDRIELSERGHDTLEKKRDGLIMEFMDILDQAQDVRSDLDENYERAQRNINMARAMEGDVAVRGAAAALKEHPEITTQSKNIMGVVVPQIESTKVKKSLDQRGYGLVGTSARIDEAADAYEELLETIILAAEVETAMKKMLDEIEKTKRRVNALEFKLLPELHEAQEYIEQKLEEQEREEIFRMKKIKAKKEEEEEENPVADTESAAEAAVTEAGQ | failed |
| MSKEIFDTFKFKCGAELKNRVLMAPMTIQAGYFDGSVTSEMIDYYQFRAGDASAIIVESCFVENHGRGFPGAIGIDNDDKIPGLKRLAEAIQAKGSKAILQLYHAGRMANPKFNEGEQPISASPIAALRPDAVPPREMTHAQINQMIDDFGEATRRAIEAGFDGVEIHGANTYLLQQFFSPHSNRRQDSWGGSREKRTRFPIEVLTKVQHVVAEKEASHFIIGYRFSPEEIEEPGIRFEDTMFLLNTLAEYEPDYFHISANSYQRTSIVNQEDTEPLINKYIKMQSAQLAKIPLIGVGSIAQRQDAEHALELGYDLLSVGKAYLVEPQWTDKISQNEEVEQFVDIHDQKVLHIPSPLWKVMDFMILDKEEEHRKYEKLKALQNKKVKFNKGTYHVYAKGHNGNLPMKVQLSEDKIVSIEVDDSGESEGIANPVFERLPQDIINGQTLNVDVISGATVTSEGIVQGIADAIEQAGEDPDILRARPKPVVQWSDEVVEETTDVVVIGTGGAGLSAAATVLDEGKEVIMLEKFAAIGGNTIRTGGQVNAAEPKWQNAFPALAGEKETLIQLLNHDENDIDEAYIEDFNTLKRQIKDYLENSSNEDEYLFDSVELHRIQTYLGGKRKDRNNVEISGDYDLVKTLTDNVLESVYWLKDKGVHFDRSFVDMPVGALWRRGHKPMKAQGLEYIENLGDYVKHNHGRIFTETTAEKLIKEGNQVVGIEARKANGAKVKIHTRHGVVLATGGFGANTKMLQQYNTYWDNIPDDIKTTNSPAITGDGIRLGVQAGADIVGMGFSQMMPISDPKTGALFTGLIVTPSNFVFVNKEGQRFVNEFESRDVLSKAALEQKDGIFYIIADANIKALAMNTTEDKINQELEDGTLVKADTLEALAQKLNIDTTTFVNTIERYNTFVEQGQDEDFNKNAFDLKIEKAPFYATPRKPAIHHTMGGLKINTHAQVIDVEGHIIEGLYAAGEVAGGIHAGNRLGGNALADIFTFGRIAGQSAVTK | failed |
| MSKFAMVFPGQGSQSLGMLADLAAQFPIVEATFSEASSVLGYDLWQLVQQGPAEELNKTWQTQPALLTASVAIWRIWQHQGGKLPSLMAGHSLGEYSALVCAGVLDFKQAVSLVELRGKLMQEAVPEGTGAMYAIIGLDNESIAKACEESAQGQVVSPVNFNSPGQVVIAGNKDAVERAGAACKAAGAKRALPLPVSVPSHCALMKPAADKLAVALEKIDFQEPLFPVVNNVDVKAEVSPVAIRSALVRQLYNPVRWTESVEFIAAEGVELLLEIGPGKVLTGLTKRIVDSLAAAAVNDVVTLNSALEH | failed |
| MSKFTIHTIETAPERVKETLRTVKKDNGGYIPNLIGLLANAPTALETYRTVGEINRRNSLTPTEREVVQITAAVTNGCAFCVAGHTAFSIKQIQMAPDLLEALRNATPIDDDPKLDTLAKFTIAVINTKGRVGDEAFADFLEVGYTPENALDVVLGVSLASLCNYANNMADTPINPELQQYVK | not failed |
| MSKGTTSQDAPFGTLLGYAPGGVAIYSSDYSSLDPQEYEDDAVFRSYIDDEYMGHKWQCVEFARRFLFLNYGVVFTDVGMAWEIFSLRFLREVVNDNILPLQAFPNGSPRAPVAGALLIWDKGGEFKDTGHVAIITQLHGNKVRIAEQNVIHSPLPQGQQWTRELEMVVENGCYTLKDTFDDTTILGWMIQTEDTEYSLPQPEIAGELLKISGARLENKGQFDGKWLDEKDPLQNAYVQANGQVINQDPYHYYTITESAEQELIKATNELHLMYLHATDKVLKDDNLLALFDIPKILWPRLRLSWQRRRHHMITGRMDFCMDERGLKVYEYNADSASCHTEAGLILERWAEQGYKGNGFNPAEGLINELAGAWKHSRARPFVHIMQDKDIEENYHAQFMEQALHQAGFETRILRGLDELGWDAAGQLIDGEGRLVNCVWKTWAWETAFDQIREVSDREFAAVPIRTGHPQNEVRLIDVLLRPEVLVFEPLWTVIPGNKAILPILWSLFPHHRYLLDTDFTVNDELVKTGYAVKPIAGRCGSNIDLVSHHEEVLDKTSGKFAEQKNIYQQLWCLPKVDGKYIQVCTFTVGGNYGGTCLRGDESLVIKKESDIEPLIVVKK | failed |
| MSKIDWDSPEGAERYDRNCDHQFQKGHVLIEMMGIKKGDFVLDVGCGTGRQALNVAGIIGPAGKLTGIDPSSYRIELARKKFEGDSSGNVRFLVRQAENLQDIPDNSINHAYFCSSFHWVDDKKTALNEIFRVLRPGGKVGMTTLDRNSPNTMKALIDPILAKFGIERRHEWHRGMKKVTAPELHDLLSGAGFTSISIEPRAVPRKYNSPEEFLQHPEEKDSSRGILRDISNETLEKLRQEITEEFRKAQTPEDIGFGNITLFAIATKAQEGI | failed |
| MSKKETDLGRDSIGKLLFKLAMPAIIAQLVNVLYNIVDRMFIGRLQSGDMAMAGVGVAFPIIMIVAAFSGLVGMGGAPLAAIKMGEKKKEDAEEIMTNSFSALIGLALFLTVFFFIFKEPILWAFGASDATIGYALDYLGIYLIGTIFVQIALGMNSFINTQGFAKVGMITVMVGAVINIVLDPILIFGFNMGVKGAALATIIGQCASAIWVLYFLFEKQSILRIRKKFLKPKLKILFSIMALGVSPFIMQATESLVIISMNNNLLKYGGDLAVGAMTIMSSVMQIILLPLMGLSQGAQPIISYNYGANKVYRVKKAFKLLLVSSMVFTTIMWSALMMLPDVFVKIFNSNNPQLMEITSWSIKIYFAGILLFGAQVACQQTFLALGQAKISLILALLRKIVLLIPFIYVLPMVFENKLMGVLMAEPFADIIAALSTVTCFIVFYKKHLSQGLEEEIKVNS | failed |
| MSKKIRNTEVDHLFDAILTLENKEECYTFFEDVCTVNELLSISQRYEVAKMLREGKTYLDISNATGASTATISRVNRSLNYGNDGYDMVLERVLKKDE | not failed |
| MSKKKETKLSKYIKVPIKMLVKARDMYIRSMNQFSSHDLPGSGMSFGIPVCNVSTLPRSFSASHSQYSVRAEDDRVAKLVRAASARNATIDGARHEPSKLRKAKSSRSCGGHRGFEKIDEASPLISFGSKHKMFQRSKSYSVVKYLGS | failed |
| MSKNDKPLVSIGIPTYNRAESLKRAINSAVNQTYTNLEIIISDNCSIDETQQLCEELCKLDSRITYIRQAKNFGATNNFSFVLKKATGEYFMWLADDDWISENYIYDCQFFLQNNHQYLLCSGIAKYYLGDDIRMGENICLEENSPIERVKEYFNKVQDNGIFYGLYRKEAVLKLRIPSCFGGDWVFIACILLLGKATTLNTCVIHRVFQEKSTEDYAKEINSKYVLEKSYPYAFICFHFFSEIERTLILQNILTKQQKILLFLDILLTLMRRFGHLYSIEYGWLNIFCIRKKLISLLKIIIRNFRQSCLYFIDSLRTFIYNLKYTPQMYQLYASSKQKNSDLKKLAFFSPVKPIKSGISDYSEELIRFLCKKYQIFVFIDDSYTEKQCPNIENTFYLNHRLFPITSKILGIKKIVYQIGNNYYHNYMFKYINKNHGIVVLHDGIHMSGNVLQQPERHKIVVHSLSASTQVKSKYPNLSVNVISLLMSLPEENLKQDKNSLRHELNIDINTFVFGVFGIISEPKMVYELLLAFCHSFVQNENVAFLMVGYEIADSRVLNFLRANEDDKRLVCKLGVSMEDLYKFIKVTDACFNLRSTSRGETSSSLLRVMSCGIPVIASDIDSFSELPSDVLLKVSQNLSQDELSSILKKIYNEKDKLKEIGKKGKSYINSFHSPSKISDIYSTLIEIE | failed |
| MSKQPWLGYLASVAITCTAAGLAYLLDHWLLPTSGTVLILQLAVLLIAFLTNFRAALLAVVLALLLFNFLFTEPRYSLHMTDIDEMVTAIVFIAVGVITSHLVTLFRNQKESLRQAQLRSNILLSVSHDLRTPLASVIGNLSTLQAYQERLPEQERAELLQGALDESDRLHRYIENLLQATRLQHGEIRLTHAVQDIRPVISKTLSRFASQERLLVKDNLQHAMVEVQSSLLEQALFNVIDNAMRFSGETAPVTLSLSETDKFIVIDIKDEGPGIETSKRSLVFNVFYSSREKDSGTGGTGLGLSVAKGIIDIHNGHIGIEESPDGCLVRIKLPRANITEEVS | failed |
| MSKRVLMVVTNHTTITDDHKTGLWLEEFAVPYLVFQEKGYDVKVASIQGGEVPLDPRSINEKDPSWAEAEAALKHTARLSKDDAHGFDAIFLPGGHGTMFDFPDNETLQYVLQQFAEDGRIIAAVCHGPSGLVNATYKDGTPIVKGKTVTSFTDEEEREVGLDVHMPFLLESTLRLRGANFVRGGKWTDFSVRDGNLITGQNPQSSRSTAEKVVAALEERE | not failed |
| MSKSTKVDLVFLFFTAIWGLSFPLTKNVLGYTSIFAFLSLRFTSAAVILIIIFWKKLKLINTKIILYGSLIGLMFFGSLAFQVASLRFTTSSNSSFISALSVVIVPLVSAGYYKKKIDFSCVLGVLFAVVGLFFISGGVNFKLNIGDLFSFLCAICITFQIIFIDIFCSKCDSALLSLIQVVFCAIFYNIVLFIIGTKPIVFNTQLTVSIFITGILGTAVAYTGIVFLEKFTSPTHTALIFCAEPVFATIFAMFIPNNNGSCESITINTFIGCGVILLSMVISELKIGNNIPQKIIKL | failed |
| MSKVALFSHVSPDGDCIGSMLGIGLALEALGKEVAMFNPDPIPRNLSFLPGVDKITQSMPDPLPETLLFVDCADLQRVQLQREDLPADAVILNLDHHISNQNFGRINWVDSQAAASGELAYALVRRLNVELTQEIAANFYTALLTDTGSFKYANTTAKTHQIAGELMELEHHHHHH | failed |
| MSLADISVIQSLPLSGSQAVTGRALNAGARLYFDWLNLNGGINGETIRLVARDDEQKIEQTVRNVRDMARVDNPVALLTVVGTANVEALMREGVLAEARLPLVGPATGASSMTTDPLVFPIKASYQQEIDKMITALVTIGVTRIGVLYQEDALGKEAITGVERTLKAHALAITAMASYPRNTANVGPAVDKLLAADVQAIFLGATAEPAAQFVRQYRARGGEAQLLGLSSIDPGILQKVAGLDAVRGYSLALVMPNPGKSVNPVIREFNRARAAVGAKDVDLSFRAVEGFVAAKVLAEAIRRAGPKPTREQVRHALTELRDYDVGGGFTVDFTDRSRPGSHYIELGVVGPNGLVIQEGHHHHHH | not failed |
| MSLADTRKIDSVLLIDDDDIVNFLNTTIIRMTHRVEEIQSVTSGNAAINKLNELYAAGRWPSIICIDINMPGINGWELIDLFKQHFQPMKNKSIVCLLSSSLDPRDQAKAEASDWVDYYVSKPLTANALNNLYNKVLNEGHHHHHH | not failed |
| MSLAEGKWWRIMLVDTQLPALAASISALSQEGFDIIQCGNAIEAVPVAVKTHPHLIITEANMPKISGMDLFNSLKKNPQTASIPVIALSGRATAKEEAQLLDMGFIDFIAKPVNAIRLSARIKRVLKLLYEDLSAPPAREGHHHHHH | not failed |
| MSLANLSELPNIGKVLEQDLIKAGIKTPVELKDVGSKEAFLRIWENDSSVCMSELYALEGAVQGIRWHGLDEAKKIELKKFHQSLEGHHHHHH | not failed |
| MSLAPWRGAIAHALHRNRSLVYARYLQLATVQPNGRPANRTLVFRGFLEDTNQLRFITDTRSAKADQIQQQPWAEICWYFPNTREQFRMAGDLTLISSDDSHQDLQPARIAMWQELSDAARLQFGWPYPGKPRIKESGAFEPSPPDPIEPVPNFCLLLLDPVQVDHLELRGEPQNRWLYHRNDQQEWSSEAINP | not failed |
| MSLDALTTLPIKKHTALLNRFPETRFVTQLAKKRASWIVFGHYLTPAQFEDMDFFTNRFNAILDMWKVGRYEVALMDGELTSEHETILKALELDYARIQDVPDLTKPGLIVLDMDSTAIQIECIDEIAKLAGVGEEVAEVTERAMQGELDFEQSLRLRVSKLKDAPEQILSQVRETLPLMPELPELVATLHAFGWKVAIASGGFTYFSDYLKEQLSLDYAQSNTLEIVSGKLTGQVLGEVVSAQTKADILLTLAQQYDVEIHNTVAVGDGANDLVMMAAAGLGVAYHAKPKVEAKAQTAVRFAGLGGVVCILSAALVAQQKLSWKSKEGHHHHHH | not failed |
